Tested on: target antigen-expressing cell line
Assay: Jurkat NFAT-GFP assay, coculture with target cell lines expressing the respective target antigen (summary Table 10A)
Assay type: cell-based, human
Set-up: key: The signs +/−, +, 2+ etc. after the name of the cell lines indicate the relative degree of positivity on the Jurkat-NFAT-GFP assay as measured by the % GFP positive cells; +: relative degree of positivity on the Jurkat-NFAT-GFP assay as measured by the % GFP positive cells; 2+: relative degree of positivity on the Jurkat-NFAT-GFP assay as measured by the % GFP positive cells
Settings: relative % GFP positive cells; for NFAT-GFP ASSAY Positive Cell lines: NALM6: SIR-expressing Jurkat-NFAT-GFP cells cocultured with NALM6; for NFAT-GFP ASSAY Positive Cell lines: RAJI: SIR-expressing Jurkat-NFAT-GFP cells cocultured with RAJI
Outline: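 Coculture of SIR-bearing Jurkat NFAT-GFP reporters with target cells, ~1:2 E:T, ~4–18 h. FACS quantified % GFP+ cells, ranked semi-quantitatively against parental Jurkat-NFAT-GFP.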

B1: 010417-E08 (protein)
chain: MALPVTALLLPLALLLHAARPLEGKPIPNPLLGLDSTGSGEDLKNVFPPEVAVFEPSKAEIAHTQKATLVCLATGFYPDHVELSWWVNGKEVHSGVCTDPQPLKEQPALNDSRYCLSSRLRVSATFWQNPRNHFRCQVQFYGLSENDEWTQDRAKPVTQIVSAEAWGRADCGITSASYHQGVLSATILYEILLGKATLYAVLVSALVLMAMVKRKDSRGRAKRSGSGATNFSLLKQAGDVEENPGPTSTMALPVTALLLPLALLLHAARPDEIVLTQSPATLSLSPGERATLSCSASSSVSYMHWYQQKPGQAPRLLIYDTSKLASGIPARFSGSGSGTDFTLTISSLEPEDVAVYYCFQGSVYPFTFGQGTKLEIKRGGGGSGGGGSGGGGSQVQLQESGPGLVKPSQTLSLTCTVSGGSISTSGMGVGWIRQHPGKGLEWIGHIWWDDDKRYNPALKSRVTISVDTSKNQFSLKLSSVTAADTAVYYCARMELWSYYFDYWGQGTLVTVSSTREAAAKQIVLTQSPAIMSASPGEKVTISCSASSSVSYMYWYQQKPGSSPKPWIYRTSNLASGVPARFSGSGSGTSYSLTISNMEAEDAAAYYCQQYHSYPTTFGGGTKLEVKGGGGSGGGGSGGGGSEVQLVESGGGLVQPKGSLKLSCAASGFSFNTYAMNWVRQAPGKGLEWIAHIRSKSNNFATYYADSVKDRFSISRDASENILFLQMNNLKTEDTAMYYCVRQGGDFPMDYWGQGTSVTVSSTREQKLISEEDGSGIQNPDPAVYQLRDSKSSDKSVCLFTDFDSQTNVSQSKDSDVYITDKCVLDMRSMDFKSNSAVAWSNKSDFACANAFNNSIIPEDTFFPSSDVPCDVKLVEKSFETDTNLNFQNLSVIGFRILLLKVAGFNLLMTLRLWSSRAKRSGSGVKQTLNFDLLKLAGDVESNPGPSRGHMTEYKPTVRLATRDDVPRAVRTLAAAFADYPATRHTVDPDRHIERVTELQELFLTRVGLDIGKVWVADDGAAVAVWTTPESVEAGAVFAEIGPRMAELSGSRLAAQQQMEGLLAPHRPKEPAWFLATVGVSPDHQGKGLGSAVVLPGVEAAERAGVPAFLETSAPRNLPFYERLGFTVTADVEVPEGPRTWCMTRKPGA
NFAT-GFP ASSAY Positive Cell lines: HEL (SIR-expressing Jurkat-NFAT-GFP cells cocultured with HEL): (+), HEL (+)
NFAT-GFP ASSAY Positive Cell lines: NALM6: (+), HEL (+)
NFAT-GFP ASSAY Positive Cell lines: RAJI: RAJI (+), NALM6

B2: 010417-C03 (protein)
chain: MALPVTALLLPLALLLHAARPLEGKPIPNPLLGLDSTGSGEDLKNVFPPEVAVFEPSKAEIAHTQKATLVCLATGFYPDHVELSWWVNGKEVHSGVCTDPQPLKEQPALNDSRYCLSSRLRVSATFWQNPRNHFRCQVQFYGLSENDEWTQDRAKPVTQIVSAEAWGRADCGITSASYHQGVLSATILYEILLGKATLYAVLVSALVLMAMVKRKDSRGRAKRSGSGATNFSLLKQAGDVEENPGPTSTMALPVTALLLPLALLLHAARPDEIVLTQSPATLSLSPGERATLSCSASSSVSYMHWYQQKPGQAPRLLIYDTSKLASGIPARFSGSGSGTDFTLTISSLEPEDVAVYYCFQGSVYPFTFGQGTKLEIKRGGGGSGGGGSGGGGSQVQLQESGPGLVKPSQTLSLTCTVSGGSISTSGMGVGWIRQHPGKGLEWIGHIWWDDDKRYNPALKSRVTISVDTSKNQFSLKLSSVTAADTAVYYCARMELWSYYFDYWGQGTLVTVSSTREAAAKDIQMTQSPSSLSASVGDRVTITCKASQDVGIAVAWYQQKPGKVPKLLIYWASTRHTGVPDRFSGSGSGTDFTLTISSLQPEDVATYYCQQYSSYPYTFGQGTKVEIKGGGGSGGGGSGGGGSEVQLVESGGGLVQPGGSLRLSCAASGFDFSRYWMSWVRQAPGKGLEWIGEINPDSSTINYAPSLKDKFIISRDNAKNSLYLQMNSLRAEDTAVYYCARPDGNYWYFDVWGQGTLVTVSSTREQKLISEEDGSGIQNPDPAVYQLRDSKSSDKSVCLFTDFDSQTNVSQSKDSDVYITDKCVLDMRSMDFKSNSAVAWSNKSDFACANAFNNSIIPEDTFFPSSDVPCDVKLVEKSFETDTNLNFQNLSVIGFRILLLKVAGFNLLMTLRLWSSRAKRSGSGVKQTLNFDLLKLAGDVESNPGPSRGHMTEYKPTVRLATRDDVPRAVRTLAAAFADYPATRHTVDPDRHIERVTELQELFLTRVGLDIGKVWVADDGAAVAVWTTPESVEAGAVFAEIGPRMAELSGSRLAAQQQMEGLLAPHRPKEPAWFLATVGVSPDHQGKGLGSAVVLPGVEAAERAGVPAFLETSAPRNLPFYERLGFTVTADVEVPEGPRTWCMTRKPGA
NFAT-GFP ASSAY Positive Cell lines: NALM6: (+/−)
NFAT-GFP ASSAY Positive Cell lines: RAJI: RAJI (+), NALM6

B3: 030217-A05 (protein)
chain: MALPVTALLLPLALLLHAARPDEIVLTQSPATLSLSPGERATLSCSASSSVSYMHWYQQKPGQAPRLLIYDTSKLASGIPARFSGSGSGTDFTLTISSLEPEDVAVYYCFQGSVYPFTFGQGTKLEIKRGGGGSGGGGSGGGGSQVQLQESGPGLVKPSQTLSLTCTVSGGSISTSGMGVGWIRQHPGKGLEWIGHIWWDDDKRYNPALKSRVTISVDTSKNQFSLKLSSVTAADTAVYYCARMELWSYYFDYWGQGTLVTVSSLEGKPIPNPLLGLDSTGSGEDLKNVFPPEVAVFEPSKAEIAHTQKATLVCLATGFYPDHVELSWWVNGKEVHSGVCTDPQPLKEQPALNDSRYCLSSRLRVSATFWQNPRNHFRCQVQFYGLSENDEWTQDRAKPVTQIVSAEAWGRADCGITSASYHQGVLSATILYEILLGKATLYAVLVSALVLMAMVKRKDSRGRAKRSGSGATNFSLLKQAGDVEENPGPTSTMALPVTALLLPLALLLHAARPDIQMTQSPSSLSASVGDRVTITCKASQDVGIAVAWYQQKPGKVPKLLIYWASTRHTGVPDRFSGSGSGTDFTLTISSLQPEDVATYYCQQYSSYPYTFGQGTKVEIKGGGGSGGGGSGGGGSEVQLVESGGGLVQPGGSLRLSCAASGFDFSRYWMSWVRQAPGKGLEWIGEINPDSSTINYAPSLKDKFIISRDNAKNSLYLQMNSLRAEDTAVYYCARPDGNYWYFDVWGQGTLVTVSSTREQKLISEEDGSGIQNPDPAVYQLRDSKSSDKSVCLFTDFDSQTNVSQSKDSDVYITDKCVLDMRSMDFKSNSAVAWSNKSDFACANAFNNSIIPEDTFFPSSDVPCDVKLVEKSFETDTNLNFQNLSVIGFRILLLKVAGFNLLMTLRLWSSRAKRSGSGVKQTLNFDLLKLAGDVESNPGPSRGHMTEYKPTVRLATRDDVPRAVRTLAAAFADYPATRHTVDPDRHIERVTELQELFLTRVGLDIGKVWVADDGAAVAVWTTPESVEAGAVFAEIGPRMAELSGSRLAAQQQMEGLLAPHRPKEPAWFLATVGVSPDHQGKGLGSAVVLPGVEAAERAGVPAFLETSAPRNLPFYERLGFTVTADVEVPEGPRTWCMTRKPGA
NFAT-GFP ASSAY Positive Cell lines: L363 (SIR-expressing Jurkat-NFAT-GFP cells cocultured with L363): (+/−), L363 (+/−),
NFAT-GFP ASSAY Positive Cell lines: NALM6: (+/−), L363 (+/−),
NFAT-GFP ASSAY Positive Cell lines: RAJI: RAJI (+), NALM6
NFAT-GFP ASSAY Positive Cell lines: U266 (SIR-expressing Jurkat-NFAT-GFP cells cocultured with U266): U266 (+/−)

B4: 010417-H05 (protein)
chain: MALPVTALLLPLALLLHAARPLEGKPIPNPLLGLDSTGSGEDLKNVFPPEVAVFEPSKAEIAHTQKATLVCLATGFYPDHVELSWWVNGKEVHSGVCTDPQPLKEQPALNDSRYCLSSRLRVSATFWQNPRNHFRCQVQFYGLSENDEWTQDRAKPVTQIVSAEAWGRADCGITSASYHQGVLSATILYEILLGKATLYAVLVSALVLMAMVKRKDSRGRAKRSGSGATNFSLLKQAGDVEENPGPTSMALPVTALLLPLALLLHAARPEIVLTQSPDFQSVTPKEKVTITCRASESVDTFGISFMNWFQQKPDQSPKLLIHAASNQGSGVPSRFSGSGSGTDFTLTINSLEAEDAATYYCQQSKEVPFTFGGGTKVEIKGGGGSGGGGSGGGGSEVQLVESGGGLVQPGGSLRLSCAASGFTFSSSWMNWVRQAPGKGLEWVGRIYPGDGDTNYNGKFKGRFTISRDDSKNSLYLQMNSLKTEDTAVYYCARSGFITTVLDFDYWGQGTLVTVSSTREQKLISEEDGSGIQNPDPAVYQLRDSKSSDKSVCLFTDFDSQTNVSQSKDSDVYITDKCVLDMRSMDFKSNSAVAWSNKSDFACANAFNNSIIPEDTFFPSSDVPCDVKLVEKSFETDTNLNFQNLSVIGFRILLLKVAGFNLLMTLRLWSSRAKRSGSGVKQTLNFDLLKLAGDVESNPGPSRGHMTEYKPTVRLATRDDVPRAVRTLAAAFADYPATRHTVDPDRHIERVTELQELFLTRVGLDIGKVWVADDGAAVAVWTTPESVEAGAVFAEIGPRMAELSGSRLAAQQQMEGLLAPHRPKEPAWFLATVGVSPDHQGKGLGSAVVLPGVEAAERAGVPAFLETSAPRNLPFYERLGFTVTADVEVPEGPRTWCMTRKPGA
NFAT-GFP ASSAY Positive Cell lines: NALM6: (+)
NFAT-GFP ASSAY Positive Cell lines: RAJI: RAJI (2+), NALM6

B5: 010417-L03 (protein)
chain: MALPVTALLLPLALLLHAARPLEQKLISEEDLGSGDRPDPAVYQLRDSKSSDKSVCLFTDFDSQTNVSQSKDSDVYITDKCVLDMRSMDFKSNSAVAWSNKSDFACANAFNNSIIPEDTFFPSPESSCDVKLVEKSFETDTNLNFQNLSVIGFRILLLKVAGFNLLMTLRLWSSSSRAKRSGSGVKQTLNFDLLKLAGDVESNPGPTSMALPVTALLLPLALLLHAARPEIVLTQSPDFQSVTPKEKVTITCRASESVDTFGISFMNWFQQKPDQSPKLLIHAASNQGSGVPSRFSGSGSGTDFTLTINSLEAEDAATYYCQQSKEVPFTFGGGTKVEIKGGGGSGGGGSGGGGSEVQLVESGGGLVQPGGSLRLSCAASGFTFSSSWMNWVRQAPGKGLEWVGRIYPGDGDTNYNGKFKGRFTISRDDSKNSLYLQMNSLKTEDTAVYYCARSGFITTVLDFDYWGQGTLVTVSSTRGKPIPNPLLGLDSTGSGEDLKNVFPPEVAVFEPSEAEISHTQKATLVCLATGFYPDHVELSWWVNGKEVHSGVCTDPQPLKEQPALNDSRYCLSSRLRVSATFWQNPRNHFRCQVQFYGLSENDEWTQDRAKPVTQIVSAEAWGRADCGFTSESYQQGVLSATILYEILLGKATLYAVLVSALVLMAMVKRKDSRGRAKRSGSGATNFSLLKQAGDVEENPGPSRGHMTEYKPTVRLATRDDVPRAVRTLAAAFADYPATRHTVDPDRHIERVTELQELFLTRVGLDIGKVWVADDGAAVAVWTTPESVEAGAVFAEIGPRMAELSGSRLAAQQQMEGLLAPHRPKEPAWFLATVGVSPDHQGKGLGSAVVLPGVEAAERAGVPAFLETSAPRNLPFYERLGFTVTADVEVPEGPRTWCMTRKPGA
NFAT-GFP ASSAY Positive Cell lines: NALM6: RAJI (+), NALM6 (+)
NFAT-GFP ASSAY Positive Cell lines: RAJI: RAJI (+), NALM6 (+)

B6: 011317-A06 (protein)
chain: B5 chain
NFAT-GFP ASSAY Positive Cell lines: NALM6: (2+)
NFAT-GFP ASSAY Positive Cell lines: RAJI: RAJI (2+), NALM6
